Test results: IntAct's records for PubMed 26551074

B1: Telomerase-associated protein of 19 kDa (Tetrahymena thermophila (strain SB210)), D2CVN7 (parent)
chain: MQQPKRNFDLYKLITDKQIDFQVADLIQDEQSSFVSVRIYGQFKCFVPKSTIQEQLDKIKNLSSKELAKNKIFKFLSEYNKNNQKQDELSHDYYGYFKVQQHQFILNLENAQREASLAVDDFYFINGRIYKTNHDILILQAHHVYQMQKPTLQLLQAASEINQN
partner: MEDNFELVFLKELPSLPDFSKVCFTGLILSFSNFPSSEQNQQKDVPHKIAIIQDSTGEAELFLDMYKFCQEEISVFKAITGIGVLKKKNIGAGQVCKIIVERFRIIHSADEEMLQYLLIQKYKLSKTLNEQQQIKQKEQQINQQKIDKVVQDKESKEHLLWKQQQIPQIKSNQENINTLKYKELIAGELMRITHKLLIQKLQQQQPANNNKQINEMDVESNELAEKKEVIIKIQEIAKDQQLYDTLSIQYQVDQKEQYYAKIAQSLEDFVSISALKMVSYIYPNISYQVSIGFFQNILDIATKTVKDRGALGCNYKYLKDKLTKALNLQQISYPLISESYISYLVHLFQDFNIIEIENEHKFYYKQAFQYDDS
B2: Telomerase-associated protein of 45 kDa (Tetrahymena thermophila (strain SB210)), Q6JXI5 (parent)
chain: B1 partner
partner: B1 chain

Variants of: B1
Conditions: with tap45_tetts TAP45, Q6JXI5

Effect of a mutation on the interaction, disrupting interaction strength:
M147W
R38E
Y145A
I161R

Variants of: B2
Conditions: with tap19_tetts TAP19, D2CVN7

Effect of a mutation on the interaction, disrupting interaction strength:
M113W
A109W
A109R
E112R
